{"source": "patent US20090035818A1", "about": "(NATIONAL UNIVERSITY OF CORPORATION HIROSHIMA UNIVERSITY, published 2009)", "key": {"[1]": {"target": "T1, fetuin (type III, calf serum) (calf, UniProt P12763 19-359)", "T1 sequence (looked up)": "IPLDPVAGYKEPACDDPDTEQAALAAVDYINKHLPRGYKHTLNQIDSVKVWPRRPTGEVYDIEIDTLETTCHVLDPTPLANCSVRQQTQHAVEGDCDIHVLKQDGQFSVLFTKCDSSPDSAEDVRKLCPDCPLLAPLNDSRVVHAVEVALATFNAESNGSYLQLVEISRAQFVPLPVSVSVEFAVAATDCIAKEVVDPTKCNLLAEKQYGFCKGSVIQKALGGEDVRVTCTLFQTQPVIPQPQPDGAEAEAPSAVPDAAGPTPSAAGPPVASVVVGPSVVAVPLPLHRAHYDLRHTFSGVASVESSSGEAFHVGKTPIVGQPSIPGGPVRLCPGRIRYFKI", "assay": "cell-based or functional assay"}, "[2]": {"target": "transferrin (human) (human, UniProt P02787 20-698)", "sequence (P02787 20-698 limits assumed)": "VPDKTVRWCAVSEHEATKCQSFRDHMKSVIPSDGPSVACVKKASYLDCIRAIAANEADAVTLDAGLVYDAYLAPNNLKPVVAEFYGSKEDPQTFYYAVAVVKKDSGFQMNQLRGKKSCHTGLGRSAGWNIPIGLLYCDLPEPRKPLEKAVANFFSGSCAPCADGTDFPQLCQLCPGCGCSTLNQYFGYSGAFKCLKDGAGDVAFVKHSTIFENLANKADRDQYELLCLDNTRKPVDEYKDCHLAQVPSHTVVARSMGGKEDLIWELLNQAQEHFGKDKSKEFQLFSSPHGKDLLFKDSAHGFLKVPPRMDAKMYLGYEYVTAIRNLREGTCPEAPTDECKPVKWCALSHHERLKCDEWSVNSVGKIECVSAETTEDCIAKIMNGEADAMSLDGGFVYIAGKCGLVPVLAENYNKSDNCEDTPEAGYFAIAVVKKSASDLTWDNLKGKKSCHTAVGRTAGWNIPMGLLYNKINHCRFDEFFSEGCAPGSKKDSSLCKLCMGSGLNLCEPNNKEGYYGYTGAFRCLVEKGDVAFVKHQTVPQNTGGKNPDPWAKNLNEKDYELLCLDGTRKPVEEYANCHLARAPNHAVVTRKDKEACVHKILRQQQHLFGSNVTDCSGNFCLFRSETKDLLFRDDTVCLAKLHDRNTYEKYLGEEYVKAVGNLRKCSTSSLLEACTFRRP", "assay": "cell-based or functional assay"}, "[3]": {"target": "asialomucin (bovine)", "assay": "cell-based or functional assay"}, "[4]": {"target": "asialotransferrin (human, UniProt P02787 20-698, sugar chains desialylated by dilute acid treatment; only complex-type sugar chain)", "sequence (P02787 20-698 limits assumed)": "as above", "assay": "cell-based or functional assay"}, "[5]": {"target": "T2, asialofetuin (calf, UniProt P12763 19-359, sugar chains desialylated)", "T2 sequence (looked up)": "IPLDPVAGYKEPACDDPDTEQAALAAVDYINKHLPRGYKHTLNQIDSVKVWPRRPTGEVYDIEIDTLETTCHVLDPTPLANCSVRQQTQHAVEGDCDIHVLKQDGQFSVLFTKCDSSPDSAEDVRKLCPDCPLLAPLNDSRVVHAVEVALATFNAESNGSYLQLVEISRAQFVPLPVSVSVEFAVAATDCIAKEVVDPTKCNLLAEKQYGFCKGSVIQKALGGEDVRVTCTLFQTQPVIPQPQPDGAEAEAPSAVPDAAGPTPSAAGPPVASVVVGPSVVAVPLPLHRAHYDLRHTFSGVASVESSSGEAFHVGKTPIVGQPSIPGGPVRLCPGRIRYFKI", "assay": "cell-based or functional assay"}, "[6]": {"target": "mucin (bovine submaxillary gland) (bovine)", "assay": "cell-based or functional assay"}, "[7]": {"target": "T3, chicken egg yolk antibody (chicken IgY antibody) (chicken)", "T3 construct": "Purified from egg yolk with the Eggcellent Chicken IgY Purification Kit (Pierce)", "assay": "SPR (Biacore 2000), chicken IgY on CM5 chip, lectin as analyte", "description": "Assessment was made as to affinity of the different types of lectins and chicken egg yolk antibody (chicken IgY antibody). Briefly, using Biacore 2000 (BIACORE) that employs the principle of surface plasmon resonance method (hereinafter, “SPR method”), chicken egg yolk antibodies (chicken IgY antibodies) were immobilized as ligands on a sensor chip, and measurements were made according to manuals using each type of lectin solution as an analyte. The SPR technique allows for measurement of specific interactions between biomolecules both quickly and quantitatively, without labeling the biomolecules. According to this technique, the ligands are immobilized on a surface of the sensor chip, which is then supplemented with a solution of substance (analyte) that acts on the ligand. Slight changes in mass caused by the binding and dissociation of the molecules are then detected as changes in SPR signals. The mass change is represented by resonance unit (RU). One thousand RU is equivalent to a change in reflection angle of 0.1° caused by resonance, and it means that the analyte has bound to the ligand at 1 ng/mm². The surface of the sensor chip is coated with dextran, and the ligands are immobilized primarily via carboxyl groups that have been introduced into the dextran.\nAffinity between each glycoprotein and each lectin was analyzed by SPR technique. Prior to analysis, preliminary analyses were made to assess analysis methods. […] An analysis program was created using “Customized Application” according to the manual, and a subtraction function was used in which subtraction was made from flow cells that had glycoproteins immobilized thereon, from among four flow cells in the sensor chip. […] Under this analysis program, each analyte (lectin) solution was flown on the sensor chip at a flow rate of 30 μl/min for 3 minutes, and buffer was flown for 3 minutes to measure the amount of lectin that had bonded/dissociated."}}, "data": [{"binder": "BML-17 (other, also called polypeptide isolated from Bryopsis maxima; BML-17 column (immobilised form)) VIYQDPVTSDMFAKIPMPGHRGPWYVCHSSGDWSRNEPVFGRCAIDAKGMVEAYFPYGGKDIKWPSRWSAVITTGVYWGKYNDWKQADCNGGQQVVDGGRGAVTVRMDGISECKGWTTGKSSHNEVWFGCNGKEVGSWISDTPASDVFPICQEYGAAVKIVHMGRAFN", "values": [{"measurement": "Minimum inhibitory concentration (hemagglutination inhibition, trypsin-treated rabbit erythrocytes)", "setting": "[1]", "result": 1000, "unit": "µg/mL"}, {"measurement": "Minimum inhibitory concentration (hemagglutination inhibition, trypsin-treated rabbit erythrocytes)", "setting": "[2]", "result": 2000, "unit": "µg/mL"}, {"measurement": "Minimum inhibitory concentration (hemagglutination inhibition, trypsin-treated rabbit erythrocytes)", "setting": "[3]", "result": 250, "unit": "µg/mL"}, {"measurement": "Minimum inhibitory concentration (hemagglutination inhibition, trypsin-treated rabbit erythrocytes)", "setting": "[4]", "result": 1000, "unit": "µg/mL"}, {"measurement": "Minimum inhibitory concentration (hemagglutination inhibition, trypsin-treated rabbit erythrocytes)", "setting": "[5]", "result": 500, "unit": "µg/mL"}, {"measurement": "Minimum inhibitory concentration (hemagglutination inhibition, trypsin-treated rabbit erythrocytes)", "setting": "[6]", "result": 250, "unit": "µg/mL"}, {"measurement": "Ka", "setting": "[7]", "result": "8.36e+07", "unit": "M⁻¹"}, {"measurement": "Kd", "setting": "[7]", "result": 12, "unit": "nM"}, {"measurement": "koff", "setting": "[7]", "result": 0.00586, "unit": "s⁻¹"}, {"measurement": "kon", "setting": "[7]", "result": 490000, "unit": "M⁻¹ s⁻¹"}]}, {"binder": "Eucheuma serra-derived lectin ESA-2 (other) GRYTVQNQWGGSSAPWNDAGLWILGSRGNQNVMAVDVNSSDGGANLNGTMTYSGEGPIGFKGARRGESNVYDVENQWGGSSAPWHAGGQFVIGSRSGQGVLAVNITSSDGGKTLTGTMTYEREGPIGFKGTQSGGDTYNVENQWGGSSAPWNKAGIWALGDRSGQAMIAMDVSSSDGGKTLEGTMQYKGEGPIGFRGKLSGANNYSVENQWGGSSAPWNAAGDWLIGDRHNQNITAVKVSSDNDGKNLDGTCTYEREGPIGFKGVATS", "values": [{"measurement": "Ka", "setting": "[7]", "result": "7.73e+07", "unit": "M⁻¹"}, {"measurement": "Kd", "setting": "[7]", "result": 12.9, "unit": "nM"}, {"measurement": "koff", "setting": "[7]", "result": 0.00455, "unit": "s⁻¹"}, {"measurement": "kon", "setting": "[7]", "result": 352000, "unit": "M⁻¹ s⁻¹"}]}]}
